In assay [1] the target is HLA-DR1 (HLA-DRA*0101, HLA-DRB1*0101) (human). Briefly: ELISA. A general note: ELISA stands for enzyme-linked immunosorbent assay.
Assay [2] shares this target. In words: ELISA. The source holds these as a separate data set.

Like-named read-outs stand apart in the source and are kept apart here. Some results are limits rather than exact numbers.

The IC50 is the concentration that gives 50% inhibition. For “SARS-CoV-2 Spike peptide S761-775 (Omicron BA.1)”, the IC50 in assay [1] worked out at 6.78 µM.

“SARS-CoV-2 Spike peptide S486-505 (Omicron BA.1)”: the IC50 in assay [1] amounted to 0.754 µM.

Consider “SARS-CoV-2 Spike peptide S761-775 (Wuhan HU-1)”, for which, in assay [2], the IC50 is greater than 10 µM.

For the origin of these results see paper PMC10840515.
